This note sets out measurements from patent US20250304677A1 (VIB VZW, published 2025).

To fix the notation:
B1: VHH 3MFR60 (family 10) (VHH)
VHH: QVQLQESGGGLVQAGGSLRVSCAASGIIFSMNGMGWFRQAPGKQRELVASITSGGSTKYADSVKGRFTISRDNAKNTVYLQMNSLKPEDTAVYYCNIQFGSRWSTYWGQGTQVTVSS
B2: VHH 2HFO42 (family 3) (VHH)
VHH: QVQLQESGGGLVQAGGSLRLSCAASGSGFSGMIMGWYRQVPGKQRELVATVTSHGTTNYADSVKGRFTISRDNAKNTVLLQMNSLKPEDTAVYYCNAHFPGIYWGKGTQVTVSS
notes: also called 2HF042; Nb42
B3: VHH 2HFO19 (family 1) (VHH)
VHH: QVQLQESGGGLVQPGGSLRVSCAASGFPFSTVYMSWVRQAPGKGLEWVSGINNDGGVIDYADSVKGRFTISRDNAKNTLYLQLNSLKPEDTALYFCARGRSFVATLSSSLRGQGTQVTVSS
notes: also called Nb19

By EC50 is commonly meant the concentration giving half of the maximal effect. Higher therefore signals lower potency in that assay. By koff is commonly meant the rate constant with which the complex falls apart.

T3 sequence (P15328 25-233 limits assumed): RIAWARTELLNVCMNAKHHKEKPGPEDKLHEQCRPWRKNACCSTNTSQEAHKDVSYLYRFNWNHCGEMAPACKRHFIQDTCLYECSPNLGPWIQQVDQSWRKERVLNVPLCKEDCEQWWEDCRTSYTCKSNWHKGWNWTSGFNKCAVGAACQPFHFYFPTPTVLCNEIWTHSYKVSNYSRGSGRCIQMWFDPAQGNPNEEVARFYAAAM
T2 sequence (P35846 25-232 limits assumed): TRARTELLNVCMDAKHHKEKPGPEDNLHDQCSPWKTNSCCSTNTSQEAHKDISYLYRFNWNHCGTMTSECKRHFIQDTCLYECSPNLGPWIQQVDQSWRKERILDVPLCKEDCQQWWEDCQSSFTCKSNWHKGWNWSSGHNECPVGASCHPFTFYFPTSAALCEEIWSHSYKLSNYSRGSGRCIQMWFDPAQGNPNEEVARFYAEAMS

In one test the target is T1, human folate receptor alpha expressed on cells (transfected HEK293T, HeLa, MCF7, MDA-MB-231) (human, UniProt P15328 25-234).
T1 construct: HEK293T transiently transfected with human FOLR1; also called native human FRα; cell-expressed human FOLR1
T1 sequence (P15328 25-234 limits assumed): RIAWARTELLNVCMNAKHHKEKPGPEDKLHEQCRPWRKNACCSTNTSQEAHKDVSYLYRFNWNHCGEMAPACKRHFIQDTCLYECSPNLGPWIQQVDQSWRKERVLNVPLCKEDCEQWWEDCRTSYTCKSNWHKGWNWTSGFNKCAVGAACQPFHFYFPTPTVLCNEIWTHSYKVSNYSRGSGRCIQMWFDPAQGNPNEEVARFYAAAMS
The experiment in a line: flow cytometry on HEK293T cells overexpressing human FOLR1, His tag detection, PE MFI, non-linear fit. The procedure: Data were normalized and technical replicates were plotted as mean±SD. Data were fitted by non-linear regression and the half-maximal effective concentration ^{∘}EC50) was calculated using GraphPad Prism 9 software. ^{∘}FIG. 1C and FIG. 1D) Binding affinity determination of anti-FOLR1 VHHs for native FOLR1. Mouse ^{∘}FIG. 1C) or human FOLR1 FIG. 1D) was overexpressed on HEK293T cells and binding of the anti-FOLR1 VHHs was assessed using flow cytometry. The mean fluorescence intensity ^{∘}MFI) of the phycoerythrin signal was plotted for each VHH concentration. Data were fitted by non-linear regression using GraphPad Prism 9 software. ^{∘}FIG. 1E) Determination of the competition of representative family members with folic acid ^{∘}FA) using ELISA. Mouse FOLR1 was coated on the plate and was pre-incubated with or without 100 μM FA before adding the VHHs. Data were fitted by non-linear regression using GraphPad Prism 9 software.
In general terms: Flow cytometry measures light scatter and fluorescence of single cells or particles in a stream.
Turning to B1, the EC50 is 10.1 nM.
On the same count and under the same terms, with B2 the figure was 26.4 nM.
In the case of B3, the EC50 is 4.5 nM.

Another test addresses T2, mouse folate receptor alpha (mFRα), recombinant protein (mouse, UniProt P35846 25-232).
T2 construct: Bought recombinant proteins (e.g. biotinylated, Acro Biosystems FO1-M82E9); also called mFOLR1; Ms FOLR1
The experiment in a line: BLI tandem binning on mouse FRα; competitor (1st association) 3MFR60. The source says: VHHs that share high sequence identity in the CDR3 region, a VHH family, are derived from the same B-cell lineage and diverged from each other due to somatic hypermutation or affinity maturation. Typically, VHHs from the same family recognize the same epitope on the target, but may differ in other characteristics ^{∘}De Genst et al 2006 PNAS 103:4586-4591; De Gents et al 2005 J Biol Chem 280:14114-14121). To study whether the VHHs from the different families bound different epitopes, epitope binning was performed using a tandem binding approach in BLI. One VHH from each family was allowed to bind to mouse FRα on the biosensor, followed by binding of the second VHH ^{∘}Table 4).
Competition between VHHs from different complementarity determining region ^{∘}CDR) 3 families was assessed in a tandem binding assay using biolayer interferometry ^{∘}BLI). Streptavidin biosensors were loaded with biotinylated mouse FRα ^{∘}Acro Biosystems, Cat.nr. FO1-M82E9), followed by binding of anti-FRα VHHs ^{∘}VHH in first association). The biosensors were then transferred to a solution containing a second VHH mixed 1:1 with the first VHH ^{∘}VHH in second association). Using the FortéBio Data Analysis Software the absolute additional binding signal for the second association on top of the first association was calculated. The data were normalized per VHH in first association using the following formula: ^{∘}signal-self)/^{∘}maximum-self) with self being the value of the VHH in first association in combination with the same VHH in second association.
Consider B1, for which the “normalized additional binding in 2nd association” value worked out at 0%.
The same measure, in the same setting: with B2 the figure was -2%.
Same read-out and setting: the value for B3 was -7%.

The target of a further test is T2, mouse folate receptor alpha (mFRα), …. In words: BLI, periplasmic extract, FRα on AR2G biosensors. As for the experimental part: (§1) After panning of core76/77 on human and mouse folate receptor alpha ^{∘}FRα), […] were randomly selected from the second and third rounds and analyzed by ELISA on both human and mouse FRα for the presence of FRα-specific VHHs in their periplasmic extracts ^{∘}PE). This led to the identification of 98 hits. For these 98 hits, the off-rate ^{∘}koff) in the PE was determined by biolayer interferometry ^{∘}BLI) on both mouse and human FRα that was directly immobilized onto AR2G biosensors. The off-rates were calculated using a 1:1 binding model. […] Abbreviations: SE: standard error.
In general terms: BLI is a label-free optical method that tracks binding on a fibre tip over time.
With B1, the koff stood at 0.00287 s⁻¹.
Still for that read-out and setting: with B2 the figure was 0.00881 s⁻¹.
Still for that read-out and setting: the value for B3 was 0.00279 s⁻¹.

The next test addresses T3, human folate receptor alpha (hFRα), recombinant protein (human, UniProt P15328 25-233).
T3 construct: Bought recombinant proteins (His-tagged, or biotinylated via Avi-tag, e.g. AcroBiosystems FO1-H82E2, F01-H52H1); also called hFOLR1; huFOLR1
The experiment in a line: BLI, periplasmic extract, FRα on AR2G biosensors. The procedure:
as §1
Take B1: the koff is 0.0449 s⁻¹.
For the molecule B2, the koff worked out at 0.0266 s⁻¹.
Still for that read-out and setting: with B3 the figure was 0.013 s⁻¹.

For the next test, the target named is T4, human FRα E140Q (human, UniProt P15328 25-234).
T4 construct: The entry is the mutant itself
T4 sequence (P15328 25-234 E140Q limits assumed): as the sequence (P15328 25-234 limits assumed) above, with E116Q counted along it
The experiment in a line: flow cytometry, transfected HEK293T cells (data not shown). The essentials:
(§2)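 HEK293T cells were transfected with single-residue mutants of human folate receptor alpha. Binding was measured by flow cytometry with each VHH at 200 nM. VHHs were detected with a mouse anti-His tag antibody followed by an anti-mouse phycoerythrin antibody. Untransfected cells served as negative control.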
For B1, the binding result was “binds”.
Still for that read-out and setting: with B2 the entry was “binds”; with B3, “binds”.

Another test deals with T5, human FRα Y150H (human, UniProt P15328 25-234).
T5 construct: The entry is the mutant itself
T5 sequence (P15328 25-234 Y150H limits assumed): as the sequence (P15328 25-234 limits assumed) above, with Y126H counted along it
The description is as above. The method in brief:
as §2
As for B1, the binding result is listed as “binds”.
On the same count and under the same terms, with B2 the entry was “binds”; with B3, “binds”.

The target in another test is T6, human FRα R147H (human, UniProt P15328 25-234).
T6 construct: The entry is the mutant itself
T6 sequence (P15328 25-234 R147H limits assumed): as the sequence (P15328 25-234 limits assumed) above, with R123H counted along it
The test is described as above. The method in brief:
as §2
As to B1, the binding result is given as “binds”.
On the same count and under the same terms, the value for B2 was “binds”; that for B3 was “binds”.
